The record followed here is the RNAGym collection of RNA variant scans (doi:10.7554/elife.90254).

The labels stand for the following.
B1: OR4K15 (parent)
chain: GUUAACGGUCAUAGGCCAUGGAAACUAGGAGCACCAUUUCGCUGCCAGUGAAGAAAUGAACAAAGAAAAUCUGGGCCAGGCAGGCAUCAAAAGAAAUAGUCUUGCGCUCAACCAGAAAGUCUGUAAUCAUUUUAAGGGUA

The variants in the data set derive from B1. Description: self-cleavage, relative activity (ratio to wild type); higher = more cleavage; in vitro, sequencing; the parent is a self-cleaving ribozyme.
In the case of GUUAACGGUCAUAGGCCAUGGAAACUAGGAGCACCAUUUCGCUGCCAGUGAAGAAAUGAACAAAGAAAAUCUGGGCCAGGCAGGCAUCAUAAGAAAUAGUCUUGCGCUCAACCAGAAAGUCCGUAAUCAUUUUAAGGGUA [A90U U122C], the self-cleavage was 2.2.

GUUAACGGUCAUAGGCCAUGGAAACUAGGAGCACCAUUUCGCUGCCAGUGAAGAAAUGAACAAAGAAAAUCUGGGCCAGGCAGGCAUCAACAGAAAUAGUCUUGCGCUCAACCAGAAAGUCUGCAAUCAUUUUAAGGGUA [A91C U124C]: the self-cleavage stood at 1.67.

For GUUAACGGUCAUAGGCCAUGGAAACUAGGAGCACCAUUUCGCUGCCAGUGAAGAAAUGAACAAAGAAAAUCUGGGCCAGGCAGGCAUCAUAAGAAAUAGUCUAGCGCUCAACCAGAAAGUCUGUAAUCAUUUUAAGGGUA [A90U U103A], the self-cleavage came to 0.34.

As to GUUAACGGUCAUAGGCCAUGGAAACUAGGAGCACCAUUUCGCUGCCAGUGAAGAAAUGAACAAAGAAAAUCUGGGCCAGGCAGGCAUCAACAGAAAUAGUCUUGCGCUCAACCAGAGAGUCUGUAAUCAUUUUAAGGGUA [A91C A117G], the self-cleavage worked out at 2.03.

As for GUUAACGGUCAUAGGCCAUGGAAACUAGGAGCACCAUUUCGCUGCCAGUGAAGAAAUGAACAAAGAAAAUCUGGGCCAGGCAGGCAUCAACAGAAGUAGUCUUGCGCUCAACCAGAAAGUCUGUAAUCAUUUUAAGGGUA [A91C A96G], the self-cleavage is 1.39.

In the case of GUUAACGGUCAUAGGCCAUGGAAACUAGGAGCACCAUUUCGCUGCCAGUGAAGAAAUGAACAAAGAAAAUCUGGGCCAGGCAGGCAUCAAGAGAAAUAGUCUUGCGCUCAACCAGAAAUUCUGUAAUCAUUUUAAGGGUA [A91G G119U], the self-cleavage was found to be 0.81.

GUUAACGGUCAUAGGCCAUGGAAACUAGGAGCACCAUUUCGCUGCCAGUGAAGAAAUGAACAAAGAAAAUCUGGGCCAGGCAGGCAUCAAGAGAAAUAGUCUUGCGCUCAACCAGAAAGACUGUAAUCAUUUUAAGGGUA [A91G U120A]: the self-cleavage amounted to 1.33.

Take GUUAACGGUCAUAGGCCAUGGAAACUAGGAGCACCAUUUCGCUGCCAGUGAAGAAAUGAACAAAGAAAAUCUGGGCCAGGCAGGCAUCAAGAGAAAUAGUCUUGCGCUCAACCAGAAAGCCUGUAAUCAUUUUAAGGGUA [A91G U120C]: the self-cleavage turned out to be 0.53.

Turning to GUUAACGGUCAUAGGCCAUGGAAACUAGGAGCACCAUUUCGCUGCCAGUGAAGAAAUGAACAAAGAAAAUCUGGGCCAGGCAGGCAUCAUAAGAAAUAGUCUUGCGCUCAACCAGAAAGUCUGUAAUCAUUUUAAGGGUU [A90U A140U], the self-cleavage is 1.2.

Consider GUUAACGGUCAUAGGCCAUGGAAACUAGGAGCACCAUUUCGCUGCCAGUGAAGAAAUGAACAAAGAAAAUCUGGGCCAGGCAGGCAUCAAGAGAAAUAGUCUUGCACUCAACCAGAAAGUCUGUAAUCAUUUUAAGGGUA [A91G G106A], for which the self-cleavage turned out to be 0.01.

Regarding GUUAACGGUCAUAGGCCAUGGAAACUAGGAGCACCAUUUCGCUGCCAGUGAAGAAAUGAACAAAGAAAAUCUGGGCCAGGCAGGCAUCAUAAGAAAUAGUCUUGCACUCAACCAGAAAGUCUGUAAUCAUUUUAAGGGUA [A90U G106A], the self-cleavage is 0.

Regarding GUUAACGGUCAUAGGCCAUGGAAACUAGGAGCACCAUUUCGCUGCCAGUGAAGAAAUGAACAAAGAAAAUCUGGGCCAGGCAGGCAUCAAGAGAAAUAGCCUUGCGCUCAACCAGAAAGUCUGUAAUCAUUUUAAGGGUA [A91G U100C], the self-cleavage is 2.19.

Consider GUUAACGGUCAUAGGCCAUGGAAACUAGGAGCACCAUUUCGCUGCCAGUGAAGAAAUGAACAAAGAAAAUCUGGGCCAGGCAGGCAUCAAGAGAAAUGGUCUUGCGCUCAACCAGAAAGUCUGUAAUCAUUUUAAGGGUA [A91G A98G], for which the self-cleavage worked out at 0.26.

Take GUUAACGGUCAUAGGCCAUGGAAACUAGGAGCACCAUUUCGCUGCCAGUGAAGAAAUGAACAAAGAAAAUCUGGGCCAGGCAGGCAUCAUAAGAAAUAGUCUUGCGCUCAACCAGAAAGUCUGUAUUCAUUUUAAGGGUA [A90U A126U]: the self-cleavage was found to be 0.98.

Take GUUAACGGUCAUAGGCCAUGGAAACUAGGAGCACCAUUUCGCUGCCAGUGAAGAAAUGAACAAAGAAAAUCUGGGCCAGGCAGGCAUCAAGAGAAAUAGUCUUGCGCUCAACCGGAAAGUCUGUAAUCAUUUUAAGGGUA [A91G A114G]: the self-cleavage is 0.25.

Regarding GUUAACGGUCAUAGGCCAUGGAAACUAGGAGCACCAUUUCGCUGCCAGUGAAGAAAUGAACAAAGAAAAUCUGGGCCAGGCAGGCAUCAAGAGAAAUAGUCUUGCGCUCAACCUGAAAGUCUGUAAUCAUUUUAAGGGUA [A91G A114U], the self-cleavage stood at 0.03.

Turning to GUUAACGGUCAUAGGCCAUGGAAACUAGGAGCACCAUUUCGCUGCCAGUGAAGAAAUGAACAAAGAAAAUCUGGGCCAGGCAGGCAUCAAGAGAAGUAGUCUUGCGCUCAACCAGAAAGUCUGUAAUCAUUUUAAGGGUA [A91G A96G], the self-cleavage turned out to be 1.3.

Turning to GUUAACGGUCAUAGGCCAUGGAAACUAGGAGCACCAUUUCGCUGCCAGUGAAGAAAUGAACAAAGAAAAUCUGGGCCAGGCAGGCAUCAUAAGAAAUAGUCUUGCGCUCAACCAGAAAGUCUGUGAUCAUUUUAAGGGUA [A90U A125G], the self-cleavage amounted to 0.8.

GUUAACGGUCAUAGGCCAUGGAAACUAGGAGCACCAUUUCGCUGCCAGUGAAGAAAUGAACAAAGAAAAUCUGGGCCAGGCAGGCAUCAAGAGAAAUAGUCUUGCGCUCUACCAGAAAGUCUGUAAUCAUUUUAAGGGUA [A91G A110U]: the self-cleavage was determined as 0.36.

With GUUAACGGUCAUAGGCCAUGGAAACUAGGAGCACCAUUUCGCUGCCAGUGAAGAAAUGAACAAAGAAAAUCUGGGCCAGGCAGGCAUCAUAAGAAAUAGUCUUGCGCUCAACCAGAAAGACUGUAAUCAUUUUAAGGGUA [A90U U120A], the self-cleavage amounted to 1.85.

For GUUAACGGUCAUAGGCCAUGGAAACUAGGAGCACCAUUUCGCUGCCAGUGAAGAAAUGAACAAAGAAAAUCUGGGCCAGGCAGGCAUCAUAAGAAAUAGUCUUGCGCUCAACCAGAAAGCCUGUAAUCAUUUUAAGGGUA [A90U U120C], the self-cleavage is 1.63.

On to GUUAACGGUCAUAGGCCAUGGAAACUAGGAGCACCAUUUCGCUGCCAGUGAAGAAAUGAACAAAGAAAAUCUGGGCCAGGCAGGCAUCAAGAGAAAUAGUCCUGCGCUCAACCAGAAAGUCUGUAAUCAUUUUAAGGGUA [A91G U102C], for which the self-cleavage is 1.94.

Regarding GUUAACGGUCAUAGGCCAUGGAAACUAGGAGCACCAUUUCGCUGCCAGUGAAGAAAUGAACAAAGAAAAUCUGGGCCAGGCAGGCAUCAUAAGAAAUAGUCUUGCGCUCAACCAGAAAGUCUGUAAUCUUUUUAAGGGUA [A90U A129U], the self-cleavage was found to be 1.29.

Turning to GUUAACGGUCAUAGGCCAUGGAAACUAGGAGCACCAUUUCGCUGCCAGUGAAGAAAUGAACAAAGAAAAUCUGGGCCAGGCAGGCAUCAAGAGAAAUAGUCUUGCGCCCAACCAGAAAGUCUGUAAUCAUUUUAAGGGUA [A91G U108C], the self-cleavage is 0.02.

As for GUUAACGGUCAUAGGCCAUGGAAACUAGGAGCACCAUUUCGCUGCCAGUGAAGAAAUGAACAAAGAAAAUCUGGGCCAGGCAGGCAUCAAGAGAAAUAGUCUUGCGCUCAACCAGAAAGUCUGUAAUCGUUUUAAGGGUA [A91G A129G], the self-cleavage came out at 0.58.

For GUUAACGGUCAUAGGCCAUGGAAACUAGGAGCACCAUUUCGCUGCCAGUGAAGAAAUGAACAAAGAAAAUCUGGGCCAGGCAGGCAUCAAGAGAAAUAGUCUUGCGCUCAACCAGAUAGUCUGUAAUCAUUUUAAGGGUA [A91G A117U], the self-cleavage amounted to 0.69.

As for GUUAACGGUCAUAGGCCAUGGAAACUAGGAGCACCAUUUCGCUGCCAGUGAAGAAAUGAACAAAGAAAAUCUGGGCCAGGCAGGCAUCAAGAGGAAUAGUCUUGCGCUCAACCAGAAAGUCUGUAAUCAUUUUAAGGGUA [A91G A94G], the self-cleavage came to 0.83.

As for GUUAACGGUCAUAGGCCAUGGAAACUAGGAGCACCAUUUCGCUGCCAGUGAAGAAAUGAACAAAGAAAAUCUGGGCCAGGCAGGCAUCAAGAGUAAUAGUCUUGCGCUCAACCAGAAAGUCUGUAAUCAUUUUAAGGGUA [A91G A94U], the self-cleavage stood at 1.02.

Regarding GUUAACGGUCAUAGGCCAUGGAAACUAGGAGCACCAUUUCGCUGCCAGUGAAGAAAUGAACAAAGAAAAUCUGGGCCAGGCAGGCAUCAACAGAAAUAGUCUUGCGCUCAACCGGAAAGUCUGUAAUCAUUUUAAGGGUA [A91C A114G], the self-cleavage came out at 0.64.

As for GUUAACGGUCAUAGGCCAUGGAAACUAGGAGCACCAUUUCGCUGCCAGUGAAGAAAUGAACAAAGAAAAUCUGGGCCAGGCAGGCAUCAAGUGAAAUAGUCUUGCGCUCAACCAGAAAGUCUGUAAUCAUUUUAAGGGUA [A91G A92U], the self-cleavage was 1.43.

For the variant GUUAACGGUCAUAGGCCAUGGAAACUAGGAGCACCAUUUCGCUGCCAGUGAAGAAAUGAACAAAGAAAAUCUGGGCCAGGCAGGCAUCAAGCGAAAUAGUCUUGCGCUCAACCAGAAAGUCUGUAAUCAUUUUAAGGGUA [A91G A92C], the self-cleavage is 0.76.

GUUAACGGUCAUAGGCCAUGGAAACUAGGAGCACCAUUUCGCUGCCAGUGAAGAAAUGAACAAAGAAAAUCUGGGCCAGGCAGGCAUCAAGGGAAAUAGUCUUGCGCUCAACCAGAAAGUCUGUAAUCAUUUUAAGGGUA [A91G A92G]: the self-cleavage is 0.51.

For the variant GUUAACGGUCAUAGGCCAUGGAAACUAGGAGCACCAUUUCGCUGCCAGUGAAGAAAUGAACAAAGAAAAUCUGGGCCAGGCAGGCAUCAAGAGAAAUAGUCUUGCGCUCAACCAGAAAGUCUGUAAUCAUUUUAUGGGUA [A91G A135U], the self-cleavage is 1.25.

Consider GUUAACGGUCAUAGGCCAUGGAAACUAGGAGCACCAUUUCGCUGCCAGUGAAGAAAUGAACAAAGAAAAUCUGGGCCAGGCAGGCAUCAAGAGAAAUAGUCUUGCGCUCAACCAGAAGGUCUGUAAUCAUUUUAAGGGUA [A91G A118G], for which the self-cleavage came to 0.94.

For GUUAACGGUCAUAGGCCAUGGAAACUAGGAGCACCAUUUCGCUGCCAGUGAAGAAAUGAACAAAGAAAAUCUGGGCCAGGCAGGCAUCAAGAGAAAUAGUCUUACGCUCAACCAGAAAGUCUGUAAUCAUUUUAAGGGUA [A91G G104A], the self-cleavage was 0.02.

For the variant GUUAACGGUCAUAGGCCAUGGAAACUAGGAGCACCAUUUCGCUGCCAGUGAAGAAAUGAACAAAGAAAAUCUGGGCCAGGCAGGCAUCAAGAGAAAUAGUCUUGCGCUCAACCAGGAAGUCUGUAAUCAUUUUAAGGGUA [A91G A116G], the self-cleavage was determined as 0.55.

Consider GUUAACGGUCAUAGGCCAUGGAAACUAGGAGCACCAUUUCGCUGCCAGUGAAGAAAUGAACAAAGAAAAUCUGGGCCAGGCAGGCAUCAAGAGAAAUAGUCUUGCGCUCAACCAGCAAGUCUGUAAUCAUUUUAAGGGUA [A91G A116C], for which the self-cleavage was found to be 0.04.

For GUUAACGGUCAUAGGCCAUGGAAACUAGGAGCACCAUUUCGCUGCCAGUGAAGAAAUGAACAAAGAAAAUCUGGGCCAGGCAGGCAUCAAGAGAAAUAGUCUUGCGCUCAACCAGAAAGUCAGUAAUCAUUUUAAGGGUA [A91G U122A], the self-cleavage was found to be 0.96.

With GUUAACGGUCAUAGGCCAUGGAAACUAGGAGCACCAUUUCGCUGCCAGUGAAGAAAUGAACAAAGAAAAUCUGGGCCAGGCAGGCAUCAAGAGAAAUAGUCUUGCGCUCAUCCAGAAAGUCUGUAAUCAUUUUAAGGGUA [A91G A111U], the self-cleavage turned out to be 0.03.

Turning to GUUAACGGUCAUAGGCCAUGGAAACUAGGAGCACCAUUUCGCUGCCAGUGAAGAAAUGAACAAAGAAAAUCUGGGCCAGGCAGGCAUCAUAAGAAAUAAUCUUGCGCUCAACCAGAAAGUCUGUAAUCAUUUUAAGGGUA [A90U G99A], the self-cleavage was determined as 0.52.

GUUAACGGUCAUAGGCCAUGGAAACUAGGAGCACCAUUUCGCUGCCAGUGAAGAAAUGAACAAAGAAAAUCUGGGCCAGGCAGGCAUCAACAGAAAUAGUCUUGCGCUCAACCAGAAAGUCUGUAAUCAUUCUAAGGGUA [A91C U132C]: the self-cleavage turned out to be 2.49.
